Measurements published in patent US20070003923A1 (Scripps Research, published 2007).

B3: wild type Ad5 fiber protein, on Ad5-pseudotyped particles (Ad5.GFP.ΔF/5F) (other)
chain: MKRARPSEDTFNPVYPYDTETGPPTVPFLTPPFVSPNGFQESPPGVLSLRLSEPLVTSNGMLALKMGNGLSLDEAGNLTSQNVTTVSPPLKKTKSNINLEISAPLTVTSEALTVAAAAPLMVAGNTLTMQSQAPLTVHDSKLSIATQGPLTVSEGKLALQTSGPLTTTDSSTLTITASPPLTTATGSLGIDLKEPIYTQNGKLGLKYGAPLHVTDDLNTLTVATGPGVTINNTSLQTKVTGALGFDSQGNMQLNVAGGLRIDSQNRRLILDVSYPFDAQNQLNLRLGQGPLFINSAHNLDINYNKGLYLFTASNNSKKLEVNLSTAKGLMFDATAIAINAGDGLEFGSPNAPNTNPLKTKIGHGLEFDSNKAMVPKLGTGLSFDSTGAITVGNKNNDKLTLWTTPAPSPNCRLNAEKDAKLTLVLTKCGSQILATVSVLAVKGSLAPISGTVQSAHLIIRFDENGVLLNNSFLDPEYWNFRNGDLTEGTAYTNAVGFMPNLSAYPKSHGKTAKSNIVSQVYLNGDKTKPVTLTITLNGTQETGDTTPSAYSMSFSWDWSGHNYINEIFATSSYTFSYIAQE
B4: Coxsackie-Adenovirus Receptor (CAR) on A549 lung carcinoma cells (receptor)
chain: LSITTPEEMIEKAKGETAYLPCKFTLSPEDQGPLDIEWLISPADNQKVDQVIILYSGDKIYDDYYPDLKGRVHFTSNDLKSGDASINVTNLQLSDIGTYQCKVKKAPGVANKKIHLVVLVKPSGARCYVDGSEEIGSDFKIKCEPKEGSLPLQYEWQKLSDSQKMPTSWLAEMTSSVISVKNASSEYSGTYSCTVRNRVGSDQCLLRLNVVPPSNKAGLIAGAIIGTLLALALIGLIIFCCRKKRREEKYEKEVHHDIREDVPPPKSRTSTARSYIGSNHSSLGSMSPSNMEGYSKTQYNQVPSEDFERTPQSPTLPPAKVAAPNLSRMGAIPVMIPAQSKDGSIV
notes: whole, on cells; The assays were run on A549 cells, which were not transfected with CAR

Experiments:
[1] = target: B4; experiment: virus attachment to A549 cells at 4 C, bound genomes by TaqMan PCR; non-specific binding set by excess Ad5 knob
[2] = target: B4; experiment: cell-based or functional assay
[3] = target: T1, Ad5Δs truncated Ad5 fiber (deletion of the 14 central shaft repeats), on pseudotyped Ad5 particles (adenovirus serotype 5 (Ad5), UniProt P11818 1-581); experiment: virus attachment to A549 cells at 4 C, bound genomes by TaqMan PCR; non-specific binding set by excess Ad5 knob
T1 construct: also called Ad5As; pLP32
T1 sequence: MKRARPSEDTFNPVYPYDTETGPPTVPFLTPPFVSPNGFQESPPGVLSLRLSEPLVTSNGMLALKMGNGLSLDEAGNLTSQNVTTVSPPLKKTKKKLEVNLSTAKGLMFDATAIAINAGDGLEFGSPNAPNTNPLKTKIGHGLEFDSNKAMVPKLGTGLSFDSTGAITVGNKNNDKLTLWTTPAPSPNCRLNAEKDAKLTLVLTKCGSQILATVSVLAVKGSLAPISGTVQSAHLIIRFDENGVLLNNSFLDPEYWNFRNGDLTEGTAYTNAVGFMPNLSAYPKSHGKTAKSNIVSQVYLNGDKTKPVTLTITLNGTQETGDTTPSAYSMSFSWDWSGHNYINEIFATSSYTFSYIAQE

[4] = target: B3; experiment: as above

B1: Ad5s/Ad37s chimeric fiber (Ad5 fiber with the 3rd and 21st repeats replaced with the corresponding repeats of Ad37), on pseudotyped Ad5 particles (other)
chain: MKRARPSEDTFNPVYPYDTETGPPTVPFLTPPFVSPNGFQESPPGVLSLRLSEPLVTSNGMLALKMGNGLSLDEAGSLTVNPKAPLQVNTDSNINLEISAPLTVTSEALTVAAAAPLMVAGNTLTMQSQAPLTVHDSKLSIATQGPLTVSEGKLALQTSGPLTTTDSSTLTITASPPLTTATGSLGIDLKEPIYTQNGKLGLKYGAPLHVTDDLNTLTVATGPGVTINNTSLQTKVTGALGFDSQGNMQLNVAGGLRIDSQNRRLILDVSYPFDAQNQLNLRLGQGPLFINSAHNLDINYNKGLYLFTASNNSKKLEVNLSTAKGLMFDATAIAINAGDGLEFGSPNAPNTNPLKTKIGHGLEFDSNIGINVRAREGLTFDNDGAITVGNKNNDKLTLWTTPAPSPNCRLNAEKDAKLTLVLTKCGSQILATVSVLAVKGSLAPISGTVQSAHLIIRFDENGVLLNNSFLDPEYWNFRNGDLTEGTAYTNAVGFMPNLSAYPKSHGKTAKSNIVSQVYLNGDKTKPVTLTITLNGTQETGDTTPSAYSMSFSWDWSGHNYINEIFATSSYTFSYIAQE
notes: also called 'straightened' Ad5 fiber shaft; pLP43
binding result [1]: binds

B2: Ad37s/Ad5k chimeric fiber (Ad37 shaft fused to the Ad5 knob), on pseudotyped Ad5 particles (other)
chain: MKRARPSEDDFNPVYPYGYARNQNIPFLTPPFVSSDGFKNFPPGVLSLKLADPITITNGDVSLKVGGGLTLQDGSLTVNPKAPLQVNTDKKLELAYDNPFESSANKLSLKVGHGLKVLDEKSAAGLKDLIGKLVVLTGKGIGTENLENTDGSSRGIGINVRAREGLTFDNDGYLVAWNPKYDTRTLWTTPAPSPNCRLNAEKDAKLTLVLTKCGSQILATVSVLAVKGSLAPISGTVQSAHLIIRFDENGVLLNNSFLDPEYWNFRNGDLTEGTAYTNAVGFMPNLSAYPKSHGKTAKSNIVSQVYLNGDKTKPVTLTITLNGTQETGDTTPSAYSMSFSWDWSGHNYINEIFATSSYTFSYIAQE
notes: Built from Ad37 1-184, with the first seven residues changed to those of Ad5, and Ad5 400-581; also called pLP13
binding result [1]: binds

B3
infection of A549 cells by GFP vector particles (FACS) [2]: ~8 fold

B4
binding result [3]: binds | binding result [4]: binds
